Laboratory results taken from patent US20260242449A1 (INTERNATIONAL AIDS VACCINE INITIATIVE, published 2026).

B1: ePGT121 (antibody, V domains shown)
VH: QMQLQESGPGLVKPGETLSLTCSVSGASISSSYWSWLRETPGKGLEWIGYTHHSGDTNYAPSLKSRVHLGLHPSKNQVSLSLTSVTAADTAVYYCARTLHGRRIYGVVAFNEYYTYFYWPTWGKGTQVTVSS
VL: SDISVAPGETVRITCGGESIGSRAVQWYQHRPGQAPRLIIYNNQDRPPGIPERFSGSPDIDFGTTATLTISNVEAGDEATYYCHIWDSRRPTNWELGPGTTLTVLG
B2: N49P7 (antibody, V domains shown)
VH: ADLVQSGAVVKKPGDSVRISCEAQGYRFPDYIIHWIRRAPGQGPEWMGWMNPMGGQVNIPWKFQGRVSMTRDTSIETAFLDLRGLKSDDTAVYYCVRDRSNGSGKRFESSNWFLDLWGRGTAVTIQS
VL: ALTQPRSVSASPGQSVTISCTGTHNLVSWCQHQPGRAPKLLIYDFNKRPSGVPDRFSGSGSGGTASLTITGLQDDDDAEYFCWAYEAFGGGTKLTVL
B3: BiS13 (bispecific antibody)
heavy: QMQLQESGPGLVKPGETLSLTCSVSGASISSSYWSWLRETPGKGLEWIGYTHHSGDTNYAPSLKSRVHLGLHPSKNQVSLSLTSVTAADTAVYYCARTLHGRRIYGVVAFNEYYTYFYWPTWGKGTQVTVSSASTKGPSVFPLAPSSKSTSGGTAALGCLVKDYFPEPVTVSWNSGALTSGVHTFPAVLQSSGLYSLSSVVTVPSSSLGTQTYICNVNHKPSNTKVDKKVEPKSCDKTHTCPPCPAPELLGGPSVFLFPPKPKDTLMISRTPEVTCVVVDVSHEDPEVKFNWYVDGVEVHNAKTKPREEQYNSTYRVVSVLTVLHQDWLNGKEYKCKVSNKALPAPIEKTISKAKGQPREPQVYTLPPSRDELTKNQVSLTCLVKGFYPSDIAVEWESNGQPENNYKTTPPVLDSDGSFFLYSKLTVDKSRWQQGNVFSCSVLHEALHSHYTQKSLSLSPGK
light: ALTQPRSVSASPGQSVTISCTGTHNLVSWCQHQPGRAPKLLIYDFNKRPSGVPDRFSGSGSGGTASLTITGLQDDDDAEYFCWAYEAFGGGTKLTVLGQGGGGSGGGGSGGGGSADLVQSGAVVKKPGDSVRISCEAQGYRFPDYIIHWIRRAPGQGPEWMGWMNPMGGQVNIPWKFQGRVSMTRDTSIETAFLDLRGLKSDDTAVYYCVRDRSNGSGKRFESSNWFLDLWGRGTAVTIQSGGGGSGGGGSGGGGSGGGGSGGGGSDISVAPGETVRITCGGESIGSRAVQWYQHRPGQAPRLIIYNNQDRPPGIPERFSGSPDIDFGTTATLTISNVEAGDEATYYCHIWDSRRPTNWELGPGTTLTVLGQPKAAPSVTLFPPSSEELQANKATLVCLISDFYPGAVTVAWKADSSPVKAGVETTTPSKQSNNKYAASSYLSLTPEQWKSHKSYSCQVTHEGSTVEKTVAPTECS

Key:
Experiment in all cases: cell-based or functional assay
[1] = target: HIV-1 Env of pseudovirus CAP45.G3 (clade C) (HIV-1)
[2] = target: HIV-1 Env of pseudovirus 231965.c01 (clade D) (HIV-1)
[3] = target: HIV-1 Env of pseudovirus TRO.11-N332A (clade B) (HIV-1)
[4] = target: HIV-1 Env of pseudovirus CNE8 (clade AE) (HIV-1)
[5] = target: HIV-1 Env of pseudovirus X1632.S2.B10 (clade G) (HIV-1)
[6] = target: HIV-1 Env of pseudovirus BJOX010000.06.2 (clade AE (T/F)) (HIV-1)
[7] = target: HIV-1 Env of pseudovirus QH0692.42-N332A (clade B) (HIV-1)
[8] = target: HIV-1 Env of pseudovirus T257-31 (clade AG) (HIV-1)
[9] = target: HIV-1 Env of pseudovirus 3016.v5.c45 (clade D) (HIV-1)
[10] = target: HIV-1 Env of pseudovirus BJOX009000.02.4 (clade AE) (HIV-1)
[11] = target: HIV-1 Env of pseudovirus MS208.A1 (clade A) (HIV-1)
[12] = target: HIV-1 Env of pseudovirus Q259.17 (clade A) (HIV-1)
[13] = target: HIV-1 Env of pseudovirus 6545.V4.C1 (clade AC) (HIV-1)

| Binder | Pseudovirus neutralization IC80 (TZM-bl luciferase) [1] [µg/mL] | Pseudovirus neutralization IC80 (TZM-bl luciferase) [2] [µg/mL] | Pseudovirus neutralization IC80 (TZM-bl luciferase) [3] [µg/mL] | Pseudovirus neutralization IC80 (TZM-bl luciferase) [4] [µg/mL] | Pseudovirus neutralization IC80 (TZM-bl luciferase) [5] [µg/mL] | Pseudovirus neutralization IC80 (TZM-bl luciferase) [6] [µg/mL] | Pseudovirus neutralization IC80 (TZM-bl luciferase) [7] [µg/mL] | Pseudovirus neutralization IC80 (TZM-bl luciferase) [8] [µg/mL] | Pseudovirus neutralization IC80 (TZM-bl luciferase) [9] [µg/mL] | Pseudovirus neutralization IC80 (TZM-bl luciferase) [10] [µg/mL] | Pseudovirus neutralization IC80 (TZM-bl luciferase) [11] [µg/mL] | Pseudovirus neutralization IC80 (TZM-bl luciferase) [12] [µg/mL] | Pseudovirus neutralization IC80 (TZM-bl luciferase) [13] [µg/mL] |
| --- | --- | --- | --- | --- | --- | --- | --- | --- | --- | --- | --- | --- | --- |
| B1 | 5.78 | > 50 | 1.35 | > 50 | > 50 | > 50 | > 50 | > 50 | > 50 | 0.0428 | > 50 | > 50 | > 50 |
| B2 | 0.112 | 0.196 | 0.0622 | 0.175 | 0.27 | 0.453 | 0.35 | 0.577 | 0.516 | 0.0999 | 0.194 | 0.163 | 1.76 |
| B3 | 0.0021 | 0.0157 | 0.0054 | 0.137 | 0.06 | 0.172 | 0.0311 |  | 0.0156 | 0.0096 | 0.0998 | 0.0114 | < 0.0001 |
